Data as given in publication PMC12751603 (Journal of Experimental & Clinical Cancer Research : CR, 2025).
Non-standard residues stand in square brackets, D forms with d. No end group written: not given here. pY = N[C@@H](Cc1ccc(OP(=O)(O)O)cc1)C(=O)O

Assays:
GST-PTPN9 D335A = target: T1, GST-PTPN9 D335A (UniProt P43378 1-593, D335A); assay: cell-based or functional assay
T1 sequence (looked up): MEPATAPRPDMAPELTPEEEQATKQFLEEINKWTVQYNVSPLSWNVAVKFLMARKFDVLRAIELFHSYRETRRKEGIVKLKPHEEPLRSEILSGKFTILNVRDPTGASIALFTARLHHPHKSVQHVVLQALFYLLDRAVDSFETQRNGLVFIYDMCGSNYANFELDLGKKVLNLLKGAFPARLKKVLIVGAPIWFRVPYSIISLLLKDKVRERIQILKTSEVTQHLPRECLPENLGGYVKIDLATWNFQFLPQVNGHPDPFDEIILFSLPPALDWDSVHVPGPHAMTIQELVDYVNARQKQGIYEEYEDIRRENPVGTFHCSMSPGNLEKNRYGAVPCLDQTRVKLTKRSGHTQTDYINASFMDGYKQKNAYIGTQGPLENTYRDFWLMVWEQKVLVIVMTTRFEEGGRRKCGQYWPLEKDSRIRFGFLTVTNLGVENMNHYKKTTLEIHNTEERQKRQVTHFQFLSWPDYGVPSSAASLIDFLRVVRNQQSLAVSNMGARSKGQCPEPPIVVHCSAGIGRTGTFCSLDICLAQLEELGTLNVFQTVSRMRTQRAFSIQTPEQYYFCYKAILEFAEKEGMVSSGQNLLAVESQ

GST-PTPN9 Y333A = target: T2, GST-PTPN9 Y333A (UniProt P43378 1-593, Y333A); assay: cell-based or functional assay
T2 sequence (looked up): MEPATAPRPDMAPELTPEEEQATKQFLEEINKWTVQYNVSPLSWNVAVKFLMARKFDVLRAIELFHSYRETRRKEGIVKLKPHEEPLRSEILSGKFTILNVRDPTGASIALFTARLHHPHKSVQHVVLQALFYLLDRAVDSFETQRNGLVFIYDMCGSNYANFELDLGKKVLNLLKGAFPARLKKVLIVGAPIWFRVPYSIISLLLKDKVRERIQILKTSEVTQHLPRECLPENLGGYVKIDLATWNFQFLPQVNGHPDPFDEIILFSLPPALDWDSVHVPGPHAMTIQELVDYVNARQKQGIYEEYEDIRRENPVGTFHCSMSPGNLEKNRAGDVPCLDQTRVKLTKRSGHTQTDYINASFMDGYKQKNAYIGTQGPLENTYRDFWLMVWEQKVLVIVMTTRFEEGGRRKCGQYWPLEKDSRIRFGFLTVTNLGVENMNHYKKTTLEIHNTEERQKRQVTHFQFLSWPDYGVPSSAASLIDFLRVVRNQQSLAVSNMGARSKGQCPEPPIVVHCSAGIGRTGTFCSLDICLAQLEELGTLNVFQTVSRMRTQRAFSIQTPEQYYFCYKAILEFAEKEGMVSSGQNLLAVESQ

B1: p-IGF1R^Y1165/1166 peptide (peptide)
peptide: IYETD[pY][pY]RKGGK
GST-PTPN9 D335A
  Kcat of phosphatase activity against the p-IGF1R^Y1165/1166 peptide: 1.78 s⁻¹
GST-PTPN9 Y333A
  Kcat of phosphatase activity against the p-IGF1R^Y1165/1166 peptide: 3.42 s⁻¹
